We go through one molecule from PMC6643034.

The experiment addresses CXCL8 (human).

B1: Evasin 3 (EVA3) (natural protein)
chain: DGGLVSTIESRTSGDGADNFDVVSCNKNCTSGQNECPEGCFCGLLGQNKKGHCYKIIGNLSGEPPVVRR
modifications: also: glycosylated
On to B1, for which the neutralization of human CXCL8-induced granulocyte migration (Transwell, EC80 dose of CXCL8, EVA3 0.02–100 nM); mean IC50 of four biological replicates came to 1.94e-09 M.
